In article doi:10.1101/2024.01.16.575974, “Structural insights into peptidoglycan hydrolysis by the FtsEX system in Escherichia coli during cell division” (bioRxiv, 2024):
Residue numbers refer to the chain shown, from its start. Names and notes keep the numbering of the source.

B1: Escherichia coli EnvC (EcoEnvCΔ34) (natural protein, UniProt P37690 35-419, looked up)
chain: DERDQLKSIQADIAAKERAVRQKQQQRASLLAQLKKQEEAISEATRKLRETQNTLNQLNKQIDEMNASIAKLEQQKAAQERSLAAQLDAAFRQGEHTGIQLILSGEESQRGQRLQAYFGYLNQARQETIAQLKQTREEVAMQRAELEEKQSEQQTLLYEQRAQQAKLTQALNERKKTLAGLESSIQQGQQQLSELRANESRLRNSIARAEAAAKARAEREAREAQAVRDRQKEATRKGTTYKPTESEKSLMSRTGGLGAPRGQAFWPVRGPTLHRYGEQLQGELRWKGMVIGASEGTEVKAIADGRVILADWLQGYGLVVVVEHGKGDMSLYGYNQSALVSVGSQVRAGQPIALVGSSGGQGRPSLYFEIRRQGQAVNPQPWLGR
B2: Escherichia coli FtsX, full length (natural protein, Escherichia coli (str. K-12, MG1655), UniProt P0AC30 1-352, looked up)
chain: MNKRDAINHIRQFGGRLDRFRKSVGGSGDGGRNAPKRAKSSPKPVNRKTNVFNEQVRYAFHGALQDLKSKPFATFLTVMVIAISLTLPSVCYMVYKNVNQAATQYYPSPQITVYLQKTLDDDAAAGVVAQLQAEQGVEKVNYLSREDALGEFRNWSGFGGALDMLEENPLPAVAVVIPKLDFQGTESLNTLRDRITQINGIDEVRMDDSWFARLAALTGLVGRVSAMIGVLMVAAVFLVIGNSVRLSIFARRDSINVQKLIGATDGFILRPFLYGGALLGFSGALLSLILSEILVLRLSSAVAEVAQVFGTKFDINGLSFDECLLLLLVCSMIGWVAAWLATVQHLRHFTPE
notes: FtsX, Escherichia coli str; K-12 MG1655, full length; residues 1-52 not resolved in the maps; Two copies stand in the FtsEX complex; also called EcoFtsX; TMD
B3: Escherichia coli FtsE E163Q mutant, His-tagged (natural protein, Escherichia coli (str. K-12, MG1655), UniProt P0A9R7 1-222, looked up)
chain: MIRFEHVSKAYLGGRQALQGVTFHMQPGEMAFLTGHSGAGKSTLLKLICGIERPSAGKIWFSGHDITRLKNREVPFLRRQIGMIFQDHHLLMDRTVYDNVAIPLIIAGASGDDIRRRVSAALDKVGLLDKAKNFPIQLSGGEQQRVGIARAVVNKPAVLLADQPTGNLDDALSEGILRLFEEFNRVGVTVLMATHDINLISRRSYRMLTLSDGHLHGGVGHE
notes: FtsE, Escherichia coli str; K-12 MG1655, full length, with E163Q (cannot hydrolyse ATP); Made with the QuikChange kit on pTD68 [PT7::his6-FtsEX]; also called FtsE mutant (E163Q); ATPase mutant; source: E. coli BL21(DE3) pLysS, co-expressed with FtsX, purified (DDM, TALON, peptidiscs, SEC) with ATP; not shown: His6, N-terminal, kept

How the values were obtained:
[1] = target: T1, Escherichia coli FtsEX complex (wild type) in peptidiscs (Escherichia coli (str. K-12, MG1655), UniProt P0A9R7 1-222; P0AC30 1-352); experiment: cell-based or functional assay
T1 sequence (looked up) 1: B3 chain with Q163E
T1 sequence (looked up) 2: B2 chain

[2] = target: the molecule itself; experiment: cryo-EM structure; WT EcoFtsEX in peptidiscs, 3 mM ATPγS, 2 mM Mg2+, incubated 8 min at 37°C before freezing
[3] = target: B1; experiment: cryo-EM structure; FtsE^E163QX in peptidiscs incubated with EnvC, 2 mM ATP-Mg2+, 8 min at 37°C before freezing; conditions: both partners purified
[4] = target: the molecule itself; experiment: as above

In the case of B1, the “fold increase of Vmax of ATP hydrolysis with EnvC over FtsEX alone” value [1] is reported as ~2.2 fold.

B2: binds [2]; binds [3].

B3: binds [4].
